Measured values: publication PMC8406312, “Reovirus Nonstructural Protein σNS Recruits Viral RNA to Replication Organelles” (mBio, 2021)
Changes are numbered by the printed parent chain. In names and notes the source's numbering stands.

B1: reovirus nonstructural protein σNS, wild type, in vitro expressed (natural protein)
chain: MASSLRAAISKIKRDDVGQQVCPNYVMLRSSVTTKVVRNVVEYQIRTGGFFSCLAMLRPLQYAKRERLLGQRNLERISTRDILQTRDLHSLCMPTPDAPMSNHQASTMRELICSYFKVDHADGLKYIPMDERYSPSSLARLFTMGMAGLHITTEPSYKRVPIMHLAADLDCMTLALPYMITLDGDTVVPVAPTLSAEQLLDDGLKGLACMDISYGCEVDANSRPAGDQSMDSSRCINELYCEETAEAICVLKTCLVLNCMQFKLEMDDLAHNAAELDKIQMMIPFSERVFRMASSFATIDAQCFRFCVMMKDKNLKIDMRETTRLWTRSASDDSVATSSLSISLDRGRWVAADASDARLLVFPIRV
modifications: [35S]methionine-labelled
notes: nonstructural protein σNS of mammalian orthoreovirus (reovirus) strain T3D, S3 gene; same plasmid as m1, expressed in reticulocyte lysate; also called WT σNS; source: in vitro translated (TNT T7 polymerase-coupled rabbit reticulocyte lysate), not purified
B2: σNS R38A, in vitro expressed (natural protein)
chain: B1 chain with R38A
modifications: [35S]methionine-labelled
notes: nonstructural protein σNS of mammalian orthoreovirus (reovirus) strain T3D, S3 gene; same plasmid as m9; also called R38A σNS; source: in vitro translated (TNT T7 polymerase-coupled rabbit reticulocyte lysate), not purified
B3: σNS K35A, in vitro expressed (natural protein)
chain: B1 chain with K35A
modifications: [35S]methionine-labelled
notes: nonstructural protein σNS of mammalian orthoreovirus (reovirus) strain T3D, S3 gene; same plasmid as m8; also called K35A σNS; source: in vitro translated (TNT T7 polymerase-coupled rabbit reticulocyte lysate), not purified
B4: σNS R6A, in vitro expressed (natural protein)
chain: B1 chain with R6A
modifications: [35S]methionine-labelled
notes: nonstructural protein σNS of mammalian orthoreovirus (reovirus) strain T3D, S3 gene; same plasmid as m2; also called R6A σNS; source: in vitro translated (TNT T7 polymerase-coupled rabbit reticulocyte lysate), not purified
B5: σNS R14A, in vitro expressed (natural protein)
chain: B1 chain with R14A
modifications: [35S]methionine-labelled
notes: nonstructural protein σNS of mammalian orthoreovirus (reovirus) strain T3D, S3 gene; same plasmid as m4; also called R14A σNS; source: in vitro translated (TNT T7 polymerase-coupled rabbit reticulocyte lysate), not purified
B6: σNS K11A, in vitro expressed (natural protein)
chain: B1 chain with K11A
modifications: [35S]methionine-labelled
notes: nonstructural protein σNS of mammalian orthoreovirus (reovirus) strain T3D, S3 gene; same plasmid as m3; also called K11A σNS; source: in vitro translated (TNT T7 polymerase-coupled rabbit reticulocyte lysate), not purified
B7: σNS Y25A, in vitro expressed (natural protein)
chain: B1 chain with Y25A
modifications: [35S]methionine-labelled
notes: nonstructural protein σNS of mammalian orthoreovirus (reovirus) strain T3D, S3 gene; same plasmid as m6; also called Y25A σNS; source: in vitro translated (TNT T7 polymerase-coupled rabbit reticulocyte lysate), not purified
B8: σNS TriA (K11A, K13A, and R14A), in vitro expressed (natural protein)
chain: B1 chain with K11A, K13A, R14A
modifications: [35S]methionine-labelled
notes: nonstructural protein σNS of mammalian orthoreovirus (reovirus) strain T3D, S3 gene; same plasmid as m5; also called TriA σNS; source: in vitro translated (TNT T7 polymerase-coupled rabbit reticulocyte lysate), not purified
B9: σNS R29A, in vitro expressed (natural protein)
chain: B1 chain with R29A
modifications: [35S]methionine-labelled
notes: nonstructural protein σNS of mammalian orthoreovirus (reovirus) strain T3D, S3 gene; same plasmid as m7; also called R29A σNS; source: in vitro translated (TNT T7 polymerase-coupled rabbit reticulocyte lysate), not purified

How the values were obtained:
[1] = target: the molecule itself; assay: native gel or EMSA; 35S-labelled σNS expressed in rabbit reticulocyte lysate, incubated with 10 μg RNase A at 37°C for 1 h; blue native PAGE, 4-16% bis-Tris, 4°C; autoradiography
[2] = target: the molecule itself; assay: native gel or EMSA; 35S-labelled σNS expressed in rabbit reticulocyte lysate, incubated without RNase A (125 mM NaCl) at 37°C for 1 h; blue native PAGE, 4-16% bis-Tris, 4°C; autoradiography; RNA of the lysate present, the ladders of oligomers are RNA-dependent

Protein | stoichiometry N [1] | stoichiometry N [2]
B1 | 2 | ≥ 6
B2 | – | 2
B3 | – | 2
B4 | – | 2
B5 | – | 2
B6 | – | 2
B7 | – | 2
B8 | – | 2
B9 | – | 2
